Results on 20 sequences are retold here after the DeepSol protein solubility set.

The nature of this data set: soluble on expression in E. coli; label from the status in PepcDB or PDB records.
Regarding “MGSDKIHHHHHHMGIGIIIASHGKFAEGIHQSGSMIFGEQEKVQVVTFMPNEGPDDLYGHFNNAIQQFDADDEILVLADLWSGSPFNQASRVAGENPDRKMAIITGLNLPMLIQAYTERLMDAGAGVEQVAANIIKESKDGIKALPEDLNPVEETAATEKVVNALQGAIPAGTVIGDGKLKINLARVDTRLLHGQVATAWTPASKADRIIVASDEVAQDDLRKQLIKQAAPGGVKANVVPISKLIEASKDPRFGNTHALILFQTPQDALRAVEGGVEINELNVGSMAHSTGKTMVNNVLSMDKEDVATFEKLRDLGVTFDVRKVPNDSKKNLFELIQKTNIK”, the “soluble on expression in E. coli” value is “not soluble”. Then “MPYVTVKMLEGRTEEQKKALAEKVTAAVSETTGAPEENIVVFIEEMSKNHYAVGGKRLSDK”, with “not soluble”; and “MGSDKIHHHHHHMKVLVTGHRGYIGAVLTPMLHQRDHDVTGLDSDIFRSCTFEGTLDDTPTMEEDVRDIVIDDLAGFDAVIHLAGLSNDPLGDYRPNLTQQINCEASVTLARLAKRAGVPRFLFASSCSNYGAAGSGFLTESAAFNPVTPYGISKVEVEHAVAPMADECFSPTFLRASTAYGLSPRIRFDLVLNNLTAWAFTTGQIYLKSDGSPWRPIVHVEDIARAYIAALEADRELVHNQAFNVGLTTENYQVREIADIVQAIVPNSRIEFAADAGPDTRCYRVDCNYIGRRLHAFKPQWTARRGVEQLYEAFCSVGLSLEDFEGERFKRIAHVKKLIRNGELDEDLRRVSVPTMALAV”, with “not soluble”; and “MAETVGERPESMSPKLDNATIAAQLGSLATALDEFNRNSGSQVEMSLLLQRVCDQVVDAIADADMAGISLLRDGRVVTVAYTDEAVREIDIPNFQALDGDYFGVAGTRKVVKARLGEAAARWPSVADNLDQAGMRSFLSAPLAVDEALAGTLNIYGQGDHGFSELDAVVLLVYTTAIEGLLRSARSVELARNEVSGLTKAMKSRAVIEQAKGIVMALRGVPADQAFEILVAQSQQEHVKLAEVARRIVESVTTNPE”, with “not soluble”. For the sequence “MSTFSLLRLPQKTLKNVILQMGHIELICTSLLSNKTKHFIREFCIFKASRFSIELNQSVQFKMFNNGRWSEYSFKNGMICITSFGIIQITMTFRTPQFNAGSWFNHFLCVLSPSKIESVTVTDAFDELRFQLVKKFLEKIQFMVLWIRTTSATSHMVRLFSEVLPVDQFWLSQDDRLNSSQFSALRPVLSKELETIFIDNRMPLNDLLITCSTAIHIIKSPLTDKEINVFLKHWMTGLKPELEHIYIEKSGVFNQTQLLDGINHDAPTDRKFKMYGNDAFRGIDLHLGQGIKATLVYENDFFHSKIHIASHNSKYISFE”, the “soluble on expression in E. coli” value is reported as “not soluble”. For “GHMKLKTKTMEWSGNSLKLLDQRKLPFIEEYVECKTHEEVAHAIKEMIVRGAPAIGVAAAFGYVLGLRDYKTGSLTDWMKQVKETLARTRPTAVNLFWALNRMEKVFFENADRENLFEILENEALKMAYEDIEVNKAIGKNGAQLIKDGSTILTHCNAGALATVDYGTALGVIRAAVESGKRIRVFADETRPYLQGARLTAWELMKDGIEVYVITDNMAGWLMKRGLIDAVVVGADRIALNGDTANKIGTYSLAVLAKRNNIPFYVAAPVSTIDPTIRSGEEIPIEERRPEEVTHCGGNRIAPEGVKVLNPAFDVTENTLITAIITEKGVIRPPFEENIKKILEVGS” the value was “soluble”; for “AARLPVAPRHLPTLEKFRAEQPTVQGTSTPTISANAALLIGSLLQSEKLPFEVMAARLSPERYALQQFHGSDLQQMLGRFAEPGHLPGKAETEQLIKGFARSLADQLEHFQLMHDATAEAFGPGGLRDRNTLAVSQAALGEYAGRASKSIEAGLNHSLAVLDERIAALDSQLEGATEDSRPVLLMDRQALETARAMLSDLHVDFCKSPEAKRLSAVAAHTQMDALIDKLNVDRSSVGGWKGIGPIVAAAVPQFMVSMLHLGYIRTATSDAMKDAVPEKSADASMKRALAVGLTAGVAHEGVTNLLKPMVQAGFQKAGLNERLNMVPLKGIDTDSVIPDPFELKNDNGALVRKTPEEAAEDKAFVASERAVLNQKKVQVSSTHPLGEMIPYGAFGGGQAVRQMLNDFNLLNGQTLSARAVTSGIAGAISATTQTIAQLNSTYVDPRGRKIPVFTPDRANADLGKDLAKGLDLREPAVRTAFYSKAVSGVQSAALNGALPSVAVQPQGASGTLSAGNIMRNMALAATGSVSYLSTLYANQSVTAEAKALKEAGMGGATPMVARTETALSNIRHPDRASLPHTFQPDTLGGVPRAVENAYHMARGALQLPTQVVVDTVRVVEDGVASGVSSLRDAHKPAET”, “not soluble”. Consider “MHRRRSGPTSQPLARGERGLPANRSFASLIAWLTSVRLLCRSPPFCCFYSLSTYTTVMYTDGQYDYDVAVVGGGPAGLTSALYTSRLGMDTIVINRGGGRAAMMTDTHNVIGVTEDVSGNEFLETAREQVQDYGGTYERGFVESVDPLADEEDGFTVTTSDGELAVKRVVLATGFADERPDPPLPRTGKGLHWCLHCDAFMFVGEPVFVMGTGEAAAHVAMIMLNYTDDVDILTRGETPEWSDETQTMLDNHPVEIVETELSGKQTDDDGWLSAYEFEDGSVREYKGGFPMLGSDYHAELADELGLDRNDDGTVAVDDHGETSVSGVYAVGDLTPGHNQIPIAMGEGADAGIAIHKDLRKYPRSVDDIESEGAVEDVEVPAVSEELFATALTHEGHAAGPRSEEAPEVRADDDLEHHHHHH”, for which the “soluble on expression in E. coli” value is “not soluble”. Consider “MIVVVNEQQVEVDEQTTIAALLDSLGFGDRGIAVALNFSVLPRSDWATKICELRKPVRLEVVTAVQGG”, for which the “soluble on expression in E. coli” value is recorded as “soluble”. For the sequence “MSAFASSDRAEKSGIALEAQQKIYEKYDKNLAGEILQWVQNVTGQSFDTQGDADNLVKVFQDGSLLCTLANSLKPGSVKKVNTSAMAFKKMENISFFLKFAEEYVQKSELFQTVDLYEGQDPNAVLICLASLARKSEKNFGRSGLGPKEAQGDRREWTDEQLKAGHNVIGLQMGSNKGATASGLNMGNTRHM”, the “soluble on expression in E. coli” value is “not soluble”. Then “MATSMTDIKGFNMISIEQEKELGNKFAVEIEKQQQPVNDPEVQRYVDKVGKRLLSGARAVEFDYVFKVVKDDSVNAFAIPGGRVYVHTGLLKAADNETELAGVLAHEINHAVARHGTRQMTQEYGYSLVLSLVLGDNPNMLAQLAGQLFGKAGMMSYSREYENQADFLGVETMYKAGYNPNGLTSFFQKLNAMDGGTQSNVARFFSTHPLTSERIQRVQAEIAKLPPQRYLTDETEFKKIKGRLKLEHHHHHH”, with “soluble”; and “MSLKQERQEKIEVLKEFKDDGATKFSSYYFDLKKNQILSSGSLTTSWRVIDFSEVLSYQVNRNGHLEQKHHGIARAVTGGIMAGGVGAIVGTTTGENTDYIDHLGLVINLSDGTNFEVKFLKTKTKTNSFTVKTAEGELRSLISIVQSGMNKAQEKAEQEQTKANTIKIESNADPAEEIRKFKKMADEGIISNEEFEAKKKQLLNLQEGHHHHHH”, with “soluble”; and “MAHHHHHHMGSTGRKAVDEINHWIAYIDCALSHPHPLPKGKHVFRSDLSTVPEVRDIYDCLYKLYAEESASASFREPVNALELGVFNYYEVVTEPMSLRTVLDRIAEGGHYSQASQVLADVEKIWSNCEKYNGADSALVKEAKKCQGILTRLRERLAEEQPAPNAELDKIISAFESADESVLGELEAYFRREDPSLIISNGDVDLTALRVKHLKAMKAILERAMNGGGGRG”, with “not soluble”.

“MSLNLNLIFKEQTLKFNKEEQETYLFLQQHNSDWANIFKEMILQGRDKVTQRLVTSMHRENLVKARTQSKKILSRDLIMLDISTTHILEIQFPQAKQTLYAPITGEHAFDRIDVEGPFYIKDDITNTITRVHHPNEILECILIEAPDLKNAASDQFQQDLINSATNMTFAISYQALSMQHDSAPLFNIIENSEDSYLRSEQAVIEGHPLHPGAKLRKGLNALQTFLYSSEFNQPIKLKIVLIHSKLSRTMSLSKDYDTTVHQLFPDLIKQLENEFTPKFNFNDYHIMIVHPWQLDDVLHSDYQAEVDKELIIEAKHTLDYYAGLSFRTLVPKYPAMSPHIKLSTNVHITGEIRTLSEQTTHNGPLMTRILNDILEKDVIFKSYASTIIDEVAGIHFYNEQDEADYQTERSEQLGTLFRKNIYQMIPQEVTPLIPSSLVATYPFNNESPIVTLIKRYQSAASLSDFESSAKSWVETYSKALLGLVIPLVTKYGIALEAHLQNAIATFRKDGLLDTMYIRDFEGLRIDKAQLNEMGYSTSHFHEKSRILTDSKTSVFNKAFYSTVQNHLGELILTISKASNDSNLERHMWYIVRDVLDNIFDQLVLSTHKSNQVNENRINEIKDTMFAPFIDYKCVTTMRLEDEAHHYTYIKVNNPLYRENNEGHHHHHH”: the “soluble on expression in E. coli” value is given as “soluble”. On to “MKEAMNNHKKLGILLANLGTPQAPTSQAVKAFLSQFLHDQRVVDMSRWLWCPLLHGIILPTRSPKVAKLYQSIWMDEGSPLMVYSRRQRDKLAELSQRPVELGMTYGEPSLLEGVRKLQQQGVEQIVVLPLYPQYSATTTAAVFDGLAKALRQLPVVPELHFIRDYHDHPLYIQALAKSVRASWQQHGQGDLLLCSYHGIPKRYAQNGDIYPEHCLKTTELLAQALGLPQDKVMMTYQSQFGKEEWLQPYTDKTMEALPRQGIKKLDVICPAFSVDCLETLEEIAEQNQEIFLHSGGEAFHYVPCLNDSQSHIELMAALVKVDC”, for which the “soluble on expression in E. coli” value was “not soluble”. Then “MILRYATNLKLAKELYQASKPKLQEDKGMIELFEHTFGLQKELVKYVGIAEATTAALYSASFINKNISRLASLSTIGILSVAAYKHFEAGQGKKGAQHALDLLGLATLSLLDTFSCNKKLEHHHHHH”, with “not soluble”. For “FVLTPGNPRWENTHLTYRIENYTPDLSREDVDRAIEKAFQLWSNVSPLTFTKVSEGQADIMISFVRGDHRDNSPFDGPGGNLAHAFQPGPGIGGDAHFDEDERWTKNFRDYNLYRVAAHELGHSLGLSHSTDIGALMYPNYIYTGDVQLSQDDIDGIQAIYGPSENPVQPSGPQTPQVCDSKLTFDAITTLRGELMFFKDRFYMRTNSFYPEVELNFISVFWPQVPNGLQAAYEIADRDEVRFFKGNKYWAVRGQDVLYGYPKDIHRSFGFPSTVKNIDAAVFEEDTGKTYFFVAHECWRYDEYKQSMDTGYPKMIAEEFPGIGNKVDAVFQKDGFLYFFHGTRQYQFDFKTKRILTLQKANSWFNCRKN” the value was “soluble”.

Take “MGHHHHHHSHMRVFALQLESFKENLMQSLFNSIPKKSVIVLPEYVINPFFHHNMGLDVNEISDQSARAVEFLSQKCEELDLIVSAPVLLEEHSKIYKKIALISKESVKYYTQQRLIPYPHWDEESFFDNEKSAFKELLVFERDGLKFAPLFGFEAHFDEIWVQAKNQGVDVVLLSSVATFESNERWRLLCQMRAFCASCVVVRANRIGAYRQIIVEEDQKNEFLWKFYGDSFVALPNGAIEDSLEGKMGALNAQIDKNDIDEWAKLWHFRTIKEG”: the “soluble on expression in E. coli” value is “soluble”. Then “MSLITLKELAKQLNVSVSTVSKALHDAKDISEGTKKRIKEAAQLYNYRPNKTALALKVNKTNTIGVIIPDILNPFFAQVLHGIEDYATEHNYDTIVCVSHDQLKKEAQSLDLLMQGRVDGFILSLSSESLAQDNFLHIDQIALNKKGLVLFDRTTDQVDCDKVVIDDKRSVYDATRILISKGKTKIAFVSNIEDLNLGQLRKEGYENALRDHGIEVNYSLNLDLTGSSDPHGLIKAFLSMQEIDGVISADNTSSLMFKSILKSERPDTNSEIPLIGFSDEKNSLLSYPRIDYIDQNAMKIGSKAAELLINRLESKDLTSKPITFEMPTEIHLYEGHHHHHH”, with “soluble”; and “MSRFWSRWYSGLVSCTARVIMIDLNHLDTIANRLSDLLPPALYESRGELQTLFKDVLQAGLAKLDLVTREEFEIQRVILLSTREKLETLLHTLVLLEDRLTDQGKNLEHHHHHH”, with “not soluble”.
